From PMC11811016 (Nature Communications, 2025)

Target: T1, recombinant his-PGC-1α (mouse, UniProt O70343 1-797, labeled with red-tris-NTA 2nd generation His-tag labeling kit)
T1 sequence (looked up): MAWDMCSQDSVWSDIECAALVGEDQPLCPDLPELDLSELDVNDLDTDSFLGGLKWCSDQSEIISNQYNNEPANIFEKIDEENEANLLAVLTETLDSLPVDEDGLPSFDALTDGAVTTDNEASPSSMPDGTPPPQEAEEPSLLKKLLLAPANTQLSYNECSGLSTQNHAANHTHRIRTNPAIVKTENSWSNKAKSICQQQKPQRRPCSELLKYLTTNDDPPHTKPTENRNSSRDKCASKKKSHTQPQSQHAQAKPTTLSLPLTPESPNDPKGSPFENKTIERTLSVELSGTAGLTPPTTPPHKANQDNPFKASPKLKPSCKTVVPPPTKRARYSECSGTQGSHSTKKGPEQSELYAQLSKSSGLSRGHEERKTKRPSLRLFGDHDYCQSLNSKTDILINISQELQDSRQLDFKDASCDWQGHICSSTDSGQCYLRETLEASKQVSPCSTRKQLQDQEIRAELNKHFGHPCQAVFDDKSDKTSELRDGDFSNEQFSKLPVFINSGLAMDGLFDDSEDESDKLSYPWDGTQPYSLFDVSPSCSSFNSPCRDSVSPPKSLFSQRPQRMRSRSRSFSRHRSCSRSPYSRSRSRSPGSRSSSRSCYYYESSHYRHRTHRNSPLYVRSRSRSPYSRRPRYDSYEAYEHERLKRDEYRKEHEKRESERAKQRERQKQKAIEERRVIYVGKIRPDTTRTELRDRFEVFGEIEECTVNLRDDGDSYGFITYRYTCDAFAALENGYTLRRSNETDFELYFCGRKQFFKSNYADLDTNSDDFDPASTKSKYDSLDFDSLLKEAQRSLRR
Assay: MST

B1: purified KMT5C protein (his tag cleaved) (enzyme)
chain: not shown
Kd: 1730 nM
